Test results: publication doi:10.1101/2023.04.26.538363 (bioRxiv, 2023)

T1: Escherichia coli inclusion body-associated protein B (E. coli, UniProt P0C058 1-142)
T1 sequence: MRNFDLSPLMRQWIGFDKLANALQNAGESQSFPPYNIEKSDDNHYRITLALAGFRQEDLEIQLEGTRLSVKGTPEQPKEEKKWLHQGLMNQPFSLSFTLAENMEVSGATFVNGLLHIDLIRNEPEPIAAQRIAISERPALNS

B1: Escherichia coli inclusion body-associated protein A, wild type (natural protein)
chain: MRNFDLSPLYRSAIGFDRLFNHLENNQSQSNGGYPPYNVELVDENHYRIAIAVAGFAESELEITAQDNLLVVKGAHADEQKERTYLYQGIAERNFERKFQLAENIHVRGANLVNGLLYIDLERVIPEAKKPRRIEIN
B2: Escherichia coli IbpA R93A mutant (natural protein)
chain: MRNFDLSPLYRSAIGFDRLFNHLENNQSQSNGGYPPYNVELVDENHYRIAIAVAGFAESELEITAQDNLLVVKGAHADEQKERTYLYQGIAEANFERKFQLAENIHVRGANLVNGLLYIDLERVIPEAKKPRRIEIN

Assays:
[1] = molecular target: T1, Escherichia coli inclusion …; experiment: sucrose density gradient centrifugation
[2] = molecular target: the molecule itself; experiment: sucrose density gradient centrifugation

Binder	binding result [1]	binding result [2]
B1	binds	binds
B2	binds	binds
